In the supplement of paper PMC5998384:

Experiments:
HeLa Kyoto [1] = test: solubility in G1/S (NP-40 vs SDS abundance) (log2 ratio); higher = more soluble; conditions: cell cycle stage: G1/S
HeLa Kyoto [2] = test: solubility change mitosis vs G1/S (difference of NP-40 vs SDS log2 ratios) (log2 ratio difference); higher = more soluble in mitosis
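For solubility change mitosis vs G1/S (difference of NP-40 vs SDS log2 ratios) in this document: synchronized HeLa Kyoto cells (double thymidine block for G1/S, nocodazole release for mitosis), protein amounts in NP-40 versus SDS lysates quantified by mass spectrometry, three biological replicates.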
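For solubility in G1/S (NP-40 vs SDS abundance) in this document: HeLa Kyoto cells arrested at G1/S by double thymidine block, proteins quantified by TMT10plex mass spectrometry in mild NP-40 versus SDS extracts, three biological replicates.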

| Substance | solubility in G1/S (log2) (HeLa Kyoto [1]) | solubility change mitosis (log2) (HeLa Kyoto [2]) |
| --- | --- | --- |
| MAASRSAGEAGPGGSQGRVVRMKRRGGRGPRRGPAGGGEKALKRLKLAVEEFVHATSEGEAPGGCEGRGAPVSFRPGGRKSRKELRKEKRHLRKARRLQRTAGPEQGPGLGGRSGAEEASGHRQDTEERARPAPSRDPSPPRKPRPSRVKAKATAATAKTRPSAAATAAARKRALLAANEEEDREIRKLERCLGLNKRKKKDGSSSVPLSFARDGLDYILGALESGKNSGLYDSSGEEEEDAGQTLPESDLESDSQDESEEEEEGDVEKEKKAQEAEAQSEDDDEDTEEEQGEEKEKGAQEKRRGKRVRFAEDEEKSENSSEDGDITDKSLCGSGEKYIPPHVRQAEETVDFKKKEELERLKKHVKGLLNRLSEPNMASISGQLEELYMAHSRKDMNDTLTSALMGACVTASAMPSRLMMEHVLLVSILHHTVGIEVGAHFLEAVVRKFDAIYKYGSEGKECDNLFTVIAHLYNFHVVQSLLIFDILKKLIGTFTEKDIELILLMLKNVGFSLRKDDALSLKELITEAQTKASGAGSEFQDQTRIRFMLETMLALKNNDMRKIPGYDPEPVEKLRKLQRALVRNAGSGSETQLRVSWDSVLSAEQTGRWWIVGSAWSGAPMIDNSHHTHLQKQLVGTVSSKILELARKQRMNTDIRRNIFCTIMTSEDFLDAFEKLLKLGLKDQQEREIIHVLMDCCLQEKTYNPFYAFLASKFCEYERRFQMTFQFSIWDKFRDLENLPATNFSNLVHLVAHLLKTKSLSLSILKVVEFSELDKPRVRFLRKVLSILLMETEVEDLSLIFTRVSDNPKLGVLREGLKLFISHFLLKNAQAHRSADEANVLREKADLATKCLQGKASLRM [NOM1] | -1 | 0.759 |
| RAI1 | -0.769 | 0.596 |
| MEGDGVPWGSEPVSGPGPGGGGMIRELCRGFGRYRRYLGRLRQNLRETQKFFRDIKCSHNHTCLSSLTGGGGAERGPAGDVAETGLQAGQLSCISFPPKEEKYLQQIVDCLPCILILGQDCNVKCQLLNLLLGVQVLPTTKLGSEESCKLRRLRFTYGTQTRVSLALPGQYELVHTLVAHQGNWETIPEEDLEVQENNEDAAHVLAELEVTMHHALLQEVDVVVAPCQGLRPTVDVLGDLVNDFLPVITYALHKDELSERDEQELQEIRKYFSFPVFFFKVPKLGSEIIDSSTRRMESERSPLYRQLIDLGYLSSSHWNCGAPGQDTKAQSMLVEQSEKLRHLSTFSHQVLQTRLVDAAKALNLVHCHCLDIFINQAFDMQRDLQITPKRLEYTRKKENELYESLMNIANRKQEEMKDMIVETLNTMKEELLDDATNMEFKDVIVPENGEPVGTREIKCCIRQIQELIISRLNQAVANKLISSVDYLRESFVGTLERCLQSLEKSQDVSVHITSNYLKQILNAAYHVEVTFHSGSSVTRMLWEQIKQIIQRITWVSPPAITLEWKRKVAQEAIESLSASKLAKSICSQFRTRLNSSHEAFAASLRQLEAGHSGRLEKTEDLWLRVRKDHAPRLARLSLESCSLQDVLLHRKPKLGQELGRGQYGVVYLCDNWGGHFPCALKSVVPPDEKHWNDLALEFHYMRSLPKHERLVDLHGSVIDYNYGGGSSIAVLLIMERLHRDLYTGLKAGLTLETRLQIALDVVEGIRFLHSQGLVHRDIKLKNVLLDKQNRAKITDLGFCKPEAMMSGSIVGTPIHMAPELFTGKYDNSVDVYAFGILFWYICSGSVKLPEAFERCASKDHLWNNVRRGARPERLPVFDEECWQLMEACWDGDPLKRPLLGIVQPMLQGIMNRLCKSNSEQPNRGLDDST [DSTYK] | 0.0887 | -0.242 |
| MAAAAAETPEVLRECGCKGIRTCLICERQRGSDPPWELPPAKTYRFIYCSDTGWAVGTEESDFEGWAFPFPGVMLIEDFVTREEEAELVRLMDRDPWKLSQSGRRKQDYGPKVNFRKQKLKTEGFCGLPSFSREVVRRMGLYPGLEGFRPVEQCNLDYCPERGSAIDPHLDDAWLWGERLVSLNLLSPTVLSMCREAPGSLLLCSAPSAAPEALVDSVIAPSRSVLCQEVEVAIPLPARSLLVLTGAARHQWKHAIHRRHIEARRVCVTFRELSAEFGPGGRQQELGQELLRIALSFQGRPV [ALKBH4] | 0.184 | -0.0312 |
| MASPSKAVIVPGNGGGDVTTHGWYGWVKKELEKIPGFQCLAKNMPDPITARESIWLPFMETELHCDEKTIIIGHSSGAIAAMRYAETHRVYAIVLVSAYTSDLGDENERASGYFTRPWQWEKIKANCPYIVQFGSTDDPFLPWKEQQEVADRLETKLHKFTDCGHFQNTEFHELITVVKSLLKVPA [RBBP9] | 0.42 | 0.00166 |
| MAAWSPAAAAPLLRGIRGLPLHHRMFATQTEGELRVTQILKEKFPRATAIKVTDISGGCGAMYEIKIESEEFKEKRTVQQHQMVNQALKEEIKEMHGLRIFTSVPKR [BOLA3] | 0.378 | 0.234 |
| MAKPAATAAAASEELSQVPDEELLRWSKEELARRLRRAEGEKVGLMLEHGGLMRDVNRRLQQHLLEIRGLKDVNQRLQDDNQELRELCCFLDDDRQKGRKLAREWQRFGRHAAGAVWHEVARSQQKLRELEARQEALLRENLELKELVLLLDEERAALAATGAASGGGGGGGGAGSRSSIDSQASLSGPLSGGAPGAGARDVGDGSSTSSAGSGGSPDHHHHVPPPLLPPGPHKAPDGKAGATRRSLDDLSAPPHHRSIPNGLHDPSSTYIRQLESKVRLLEGDKLLAQQAGSGEFRTLRKGFSPYHSESQLASLPPSYQDSLQNGPACPAPELPSPPSAGYSPAGQKPEAVVHAMKVLEVHENLDRQLQDSCEEDLSEKEKAIVREMCNVVWRKLGDAASSKPSIRQHLSGNQFKGPL [CCDC85C] | 0.216 | 0.214 |
| MAAALPRTLGELQLYRILQKANLLSYFDAFIQQGGDDVQQLCEAGEEEFLEIMALVGMASKPLHVRRLQKALRDWVTNPGLFNQPLTSLPVSSIPIYKLPEGSPTWLGISCSSYERSSNAREPHLKIPKCAATTCVQSLGQGKSDVVGSLALQSVGESRLWQGHHATESEHSLSPADLGSPASPKESSEALDAAAALSVAECVERMAPTLPKSDLNEVKELLKTNKKLAKMIGHIFEMNDDDPHKEEEIRKYSAIYGRFDSKRKDGKHLTLHELTVNEAAAQLCVKDNALLTRRDELFALARQISREVTYKYTYRTTKSKCGERDELSPKRIKVEDGFPDFQDSVQTLFQQARAKSEELAALSSQQPEKVMAKQMEFLCNQAGYERLQHAERRLSAGLYRQSSEEHSPNGLTSDNSDGQGERPLNLRMPNLQNRQPHHFVVDGELSRLYPSEAKSHSSESLGILKDYPHSAFTLEKKVIKTEPEDSR [NAB1] | 0.187 | 0.105 |
| MAAPVLLRVSVPRWERVARYAVCAAGILLSIYAYHVEREKERDPEHRALCDLGPWVKCSAALASRWGRGFGLLGSIFGKDGVLNQPNSVFGLIFYILQLLLGMTASAVAALILMTSSIMSVVGSLYLAYILYFVLKEFCIICIVTYVLNFLLLIINYKRLVYLNEAWKRQLQPKQD [VKORC1L1] | -0.56 | -0.107 |
| MGLELYLDLLSQPCRAVYIFAKKNDIPFELRIVDLIKGQHLSDAFAQVNPLKKVPALKDGDFTLTESVAILLYLTRKYKVPDYWYPQDLQARARVDEYLAWQHTTLRRSCLRALWHKVMFPVFLGEPVSPQTLAATLAELDVTLQLLEDKFLQNKAFLTGPHISLADLVAITELMHPVGAGCQVFEGRPKLATWRQRVEAAVGEDLFQEAHEVILKAKDFPPADPTIKQKLMPWVLAMIR [GSTT1] | 0.038 | -0.295 |
| MAGWWPALSRAARRHPWPTNVLLYGSLVSAGDALQQRLQGREANWRQTRRVATLVVTFHANFNYVWLRLLERALPGRAPHALLAKLLCDQVVGAPIAVSAFYVGMSILQGKDDIFLDLKQKFWNTYLSGLMYWPFVQLTNFSLVPVQWRTAYAGVCGFLWATFICFSQQSGDGTFKSAFTILYTKGTSATEGYPKK [MPV17L] | -0.145 | -0.192 |
| MLRSTGFFRAIDCPYWSGAPGGPCRRPYCHFRHRGARGSGAPGDGGEAPPAAGLGYDPYNPELPKPPAQRENGTLGLGEEPRPDVLELELVNQAIEAVRSEVELEQRRYRELLETTREHRSAEAPALAPRGPNASPTVGPDEDAFPLAFDYSPGSHGLLSPDAGYQPTPLAAPAEPGSKYSLASLDRGQGRGGGGGGALEYVPKAVSQPRRHSRPVPSGKYVVDNSRPPTDLEYDPLSNYSARHLSRASSRDERAAKRPRGSRGSEPYTPAPKKLCDPFGSCDARFSDSEDEAATVPGNEPTTASTPKARADPEIKATGQPPSKEGLEAEGGGLRETKETAVQCDVGDLQPPPAKPASPAQVQSSQDGGCPKEGKPKKKKTGAPPAPSCKDGAQGKDKTKDKGRGRPVEKPRADKKGPQASSPRRKAERPEGTKKKPSSATPVATSGKGRPDRPARRPSPTSGDSRPAAGRGPPRPLQLPDRKSTKAPSGKLVERKARSLDEGASQDAPKLKKRALSHADLFGDESEDEAAGPGVPSVWPSALPSLSSDSDSDSDSSLGFPEAQGPPKRLKASPPPSPAPSSSSSSSSSTSSAGADVDYSALEKEVDFDSDPMEECLRIFNESTSVKTEDRGRLARQPPKEEKSEEKGLSGLTTLFPGQKRRISHLSKQGQEVEPPRRGPAVPPARPPTAQEVCYLRAQQAQRASASLLQAPARLAEKSPSVHISAPGEKRRIAHIPNPRLAAAPTGAKRTLAASGSQSSNGPEPGGQQLKTRTLSGMASKTTTTIIPKRIAHSPSLQSLKKPIIPKEFGGKVPTVIRQRYLNLFIEECLKFCTSNQEAIEKALNEEKVAYDRSPSKNIYLNVAVNTLKKLRGLAPSAVPGLSKTSGRRVVSHEVVLGGRLAAKTSFSLSRPSSPRVEDLKGAALYSRLREYLLTQDQLKENGYPFPHPERPGGAIIFTAEEKRPKDSSCRTCCRCGTEYLVSSSGRCIRDEECYYHWGRLRRNRVAGGWETQYMCCSAAAGSVGCQVAKQHVQDGRKERLEGFVKTFEKELSGDTHPGIYALDCEMSYTTYGLELTRVTVVDTDVHVVYDTFVKPDNEIVDYNTRFSGVTEADLADTSVTLRDVQAVLLSMFSADTILIGHSLESDLLALKVIHSTVVDTSVLFPHRLGLPYKRSLRNLMADYLRQIIQDNVDGHSSSEDAGACMHLVIWKVREDAKTKR [REXO1] | -0.201 | -0.0256 |
| NISCH | -0.0187 | 0.0432 |
| MAEAATGFLEQLKSCIVWSWTYLWTVWFFIVLFLVYILRVPLKINDNLSTVSMFLNTLTPKFYVALTGTSSLISGLILIFEWWYFRKYGTSFIEQVSVSHLRPLLGGVDNNSSNNSNSSNGDSDSNRQSVSECKVWRNPLNLFRGAEYNRYTWVTGREPLTYYDMNLSAQDHQTFFTCDSDHLRPADAIMQKAWRERNPQARISAAHEALEINEIRSRVEVPLIASSTIWEIKLLPKCATAYILLAEEEATTIAEAEKLFKQALKAGDGCYRRSQQLQHHGSQYEAQHRRDTNVLVYIKRRLAMCARRLGRTREAVKMMRDLMKEFPLLSMFNIHENLLEALLELQAYADVQAVLAKYDDISLPKSATICYTAALLKARAVSDKFSPEAASRRGLSTAEMNAVEAIHRAVEFNPHVPKYLLEMKSLILPPEHILKRGDSEAIAYAFFHLAHWKRVEGALNLLHCTWEGTFRMIPYPLEKGHLFYPYPICTETADRELLPSFHEVSVYPKKELPFFILFTAGLCSFTAMLALLTHQFPELMGVFAKAMIDIFCSAEFRDWNCKSIFMRVEDELEIPPAPQSQHFQN [ST7] | -0.381 | 0.0591 |
